Laboratory results reported in patent publication US20040166543.
Numbering of substitutions follows the chain as printed.

Legend:
[1] = tested on: T1, MUC1/CD (purified hexahistidine tagged MUC1 cytoplasmic domain), unphosphorylated
T1 sequence: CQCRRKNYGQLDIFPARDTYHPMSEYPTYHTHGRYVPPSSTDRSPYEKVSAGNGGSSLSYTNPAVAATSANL

MUC1/CD(Y46F) = tested on: T2, MUC1/CD(Y46F)
T2 sequence: T1 sequence with Y46F

MUC1/CD(S40A) = tested on: T3, MUC1/CD(S40A)
T3 sequence: T1 sequence with S40A

MUC1/CD(S44A) = tested on: T4, MUC1/CD(S44A)
T4 sequence: T1 sequence with S44A

MUC1/CD (S40A/S44A) = tested on: T5, MUC1/CD (S40A/S44A)
T5 sequence: T1 sequence with S40A, S44A

MUC1/CD(T41A) = tested on: T6, MUC1/CD(T41A)
T6 sequence: T1 sequence with T41A

purified c-Src polypeptide (Oncogene Research Products)
phosphorylation of MUC1/CD ([γ-32P]ATP, SDS-PAGE, autoradiography) [1]: demonstrated c-Src-mediated phosphorylation of MUC1/CD | phosphorylation of MUC1/CD(Y46F) ([γ-32P]ATP, autoradiography) (MUC1/CD(Y46F)): Incubation of MUC1/CD(Y46F) with c-Src demonstrated a decrease in phosphorylation as compared to that found with wild-type MUC1/CD

purified recombinant PKCδ (PanVera / Calbiochem-Novabiochem)
phosphorylation of MUC1/CD ([γ-32P]ATP, SDS-PAGE, autoradiography) [1]: demonstrated phosphorylation of MUC1 CD | phosphorylation ([γ-32P]ATP, autoradiography) (MUC1/CD(S40A)): phosphorylation of MUC1 by PKCδ was unaffected by S to A mutations of either or both of the flanking serines | phosphorylation ([γ-32P]ATP, autoradiography) (MUC1/CD(S44A)): phosphorylation of MUC1 by PKCδ was unaffected by S to A mutations of either or both of the flanking serines | phosphorylation ([γ-32P]ATP, autoradiography) (MUC1/CD (S40A/S44A)): phosphorylation of MUC1 by PKCδ was unaffected by S to A mutations of either or both of the flanking serines | phosphorylation ([γ-32P]ATP, autoradiography) (MUC1/CD(T41A)): PKCδ-mediated phosphorylation of MUC1/CD(T41A) was attenuated compared to that obtained with wild-type MUC1/CD
